Measured values taken from patent US20230374068A1, “COMPOSITIONS AND METHODS FOR TREATING A DISEASE” (RAMOT AT TEL AVIV UNIVERSITY LTD., priority 2021, published 2023).
Where a chain is given by its changes, count along the chain named.

B1: GST-Rab12 (pGEX-4T-3-Rab12) (other, mouse, UniProt P35283 49-291, looked up)
chain: MDPSAALHRRPAGGSLGAVSPALSGGQARRRKQPPRPADFKLQVIIIGSRGVGKTSLMERFTDDTFCEACKSTVGVDFKIKTVELRGKKIRLQIWDTAGQERFNSITSAYYRSAKGIILVYDITKKETFDDLPKWMKMIDKYASEDAELLLVGNKLDCETDREISRQQGEKFAQQITGMRFCEASAKDNFNVDEIFLKLVDDILKKMPLDVLRNELSNSILSLQPEPEIPPELPPPRPHVRCC
notes: Immobilized on glutathione agarose beads; pulldown in the presence of 0.5 mM GTPgammaS; also called immobilized Rab12; not shown: glutathione S-transferase (GST) encoded by the pGEX-4T-3 vector
B2: GST-RILP-L2 (pGEX-4T-3-RILP-L2) (other, mouse, UniProt Q99LE1 1-197, looked up)
chain: MEDHPVREEEDGEEDEGALAKSPLQLTTDDVYDISYVVGRELMALGSDPRVTRLQFKIVRVMEMLETLVNEGSLAVEELRMERDNLKQEVEGLRKAGVSGAQVNLGPDKMVVDLTDPNRPRFTLQELREVLQERNKLKSQLLLVQEELQCYRSGLLPPRETPGGRREKDAVVAMGNGEKEERTIMKKLFSFRSGKHT
notes: Immobilized on glutathione agarose beads; not shown: glutathione S-transferase (GST) encoded by the pGEX-4T-3 vector
B3: T7-RILP-L2 (pEF-T7-RILP-L2) (other, mouse, UniProt Q99LE1 1-197, looked up, not shown: small tags and cut ends)
chain: B2 chain
notes: The pEF-T7 plasmid was 'prepared as previously described'; also called T7-tagged RILP-L2; RILP-like 2
B4: GFP-RILP (mouse RILP in pEGFP-C1) (other, UniProt Q5ND29 1-369, looked up)
chain: MEPRRAAPRLPSQASSSVGAGSAAELVYHLAGALGTELQGLARRFGPDAAAGLVPLVVRALELLEKAAVGPAPDSLQVSAQQAEVELRRLREENQRLRQELGSGPQEERALLRQLKEVTDRQRDELRAHNRDLQRRSQETEALQEQLQRLLLINSELRHKLAAVQTQLRAAQDRERERQIAQDGSSQLAKEQSLEPDAATSDDPVDTQKQPGNLPEAVQCGFSREELKQILQERNELKANVFLLKEELAYFQRELLTDHRVPGLLLEAMKVAVKKQRRKIKAKMLGTPEEAESSEDEDGSWLLLSNDKEDVPLVPESRIQNFFGLWYRGETEAPEAETSNPASSSLQKGEETPQQPHLQPVNSPPAPNS
notes: Expressed in transfected RBL cells; tested in cell lysate; also called GFP-fused RILP; pEGFP-C1-RILP; not shown: EGFP of the pEGFP-C1 vector

Legend:
[1] = molecular target: T7-RILP (pEF-T7-RILP) (mouse) (UniProt Q5ND29); experiment: cell-based or functional assay
[2] = molecular target: T1, T7-RILP(L231A) (pEF-T7-RILP(L231A)) (mouse, UniProt Q5ND29 1-369); experiment: cell-based or functional assay
T1 construct: RHD mutant; expressed in transfected RBL cells
T1 sequence (looked up): B4 chain with L231A

[3] = molecular target: T2, T7-RILP(E233A) (pEF-T7-RILP(E233A)) (mouse, UniProt Q5ND29 1-369); experiment: GST-Rab12 pulldown from RBL cell lysates with GTPgammaS, anti-T7 immunoblot
T2 construct: RHD mutant; expressed in transfected RBL cells
T2 sequence (looked up): B4 chain with E233A
Method: (§1) Bound proteins were eluted by sample buffer, and analyzed by SDS-PAGE and immunoblotting, using monoclonal antibodies directed against T7. Input=10% of total protein. A representative blot is shown. […] The results are the average pulldown±SEM derived from three independent experiments. *P[(T7-RILP/T7-RILP(L231A)]=0.0480, *P[T7-RILP/T7-RILP(E233A)]=0.0498.
(§2) Pulldown assays were performed as previously described 2. Briefly, 20 μg of GST fusion proteins or control GST immobilized on Glutathione Agarose beads were incubated for 18 hours at 4° C. with RBL cell lysates (500 μg) prepared in buffer C (50 mM Hepes pH 7.4, 150 mM NaCl, 1 mM MgCl₂, 1% TritonX100, 1 mM PMSF, protease inhibitor mixture, 2 mM Na₃VO₄) in the presence of 0.5 mM GTPγS. At the end of the incubation period, beads were sedimented by centrifugation at 5000×g for 5 minutes at 4° C., washed 4 times in buffer C with 0.2% TritonX100, and finally suspended in sample buffer, boiled for 7 minutes, and subjected to SDS-PAGE and immunoblotting. In pulldown experiments of endogenous phosphoRab12, cell lysates were prepared in buffer D (50 mM Hepes pH 7.4, 150 mM NaCl, 1 mM MgCl₂, 1% TritonX100, 1 mM PMSF, protease inhibitor mixture, 2 mM Na₃VO₄, 10 mM NaPPi and 80 mM β-glycerophosphate) and the pulldown assay was conducted in the absence of GTPγS. Beads were washed in buffer D with 0.2% TritonX100.

[4] = molecular target: T1, T7-RILP(L231A) (pEF-T7-RILP(L231A)); experiment: as above
Method: as §1, §2

[5] = molecular target: T3, endogenous Rab12 of RBL cells (rat, UniProt P35284 49-291, limits assumed); experiment: GST pulldown of endogenous Rab12 from RBL cell lysates, anti-Rab12 immunoblot
T3 construct: Total Rab12 pulled down from cell lysates (blot reprobed with anti-Rab12)
T3 sequence (looked up): B1 chain with S15G, N214S
Method: Cells were then lysed and 500 μg of cell lysate were incubated overnight at 4° C. with either GST, GST-RILP, GST-RILP-L1 or GST-RILP-L2, immobilized on glutathione agarose beads, as indicated. At the end of the incubation period, beads were sedimented by centrifugation at 5000×g for 5 minutes at 4° C., washed four times with buffer containing 50 mM Hepes pH 7.4, 150 mM NaCl, 1 mM MgCl₂, 0.2% Triton X-100, protease inhibitor mixture, 1 mM PMSF, 2 mM Na₃VO₄, 10 mM NaPPi and 80 mM β-glycerophosphate and suspended in 1× sample buffer and boiled for 7 minutes. Proteins were resolved by SDS-PAGE and analyzed by immunoblotting with the anti-phosphoRab12 antibodies, followed by reprobing with anti Rab12 antibodies, as indicated. Representative blots are shown. Similar results were obtained in two separate experiments.
Next, it was assessed whether […] any impact on Rab12 interactions with its RILP family effectors. To this end, lysates derived from resting RBL cells or RBL cells that were triggered with either IgE/Ag or Ion/TPA, were subjected to pulldown assays by chimeric proteins consisting of GST-fused to either RILP, RILP-L1, or RILP-L2, or control GST. […] Therefore, under these conditions, the efficacy of Rab12-effector interactions was RILP-L1>RILP>>>RILP-L2.

[6] = molecular target: B4; experiment: co-immunoprecipitation from co-transfected RBL cell lysates, IP anti-GFP, blot anti-T7
Method: (§3) FIGS. 1A, 1B show the results of immunoprecipitations in which cell lysates derived from the rat mast cell line RBL-2H3, herein referred to as RBL cells, that were co-transfected with 17.5 μg of pEGFP plasmid encoding either RILP, RILP-L1 or RILP-L2 and 17.5 μg of pEF plasmid encoding either T7-RILP, T7-RILP-L1 or T7-RILP-L2, as indicated, were subjected to immunoprecipitation with rabbit polyclonal antibodies directed against GFP. FIGS. 1C, 1D show the results of immunoprecipitations in which the RBL cell lysates described above were subjected to immunoprecipitation with mouse monoclonal antibodies directed against the T7 epitope. Immune complexes were then analyzed by SDS-PAGE and immunoblotting with mouse monoclonal anti T7 antibodies, followed by reprobing with polyclonal anti GFP antibodies (FIGS. 1A, 1B), or with polyclonal anti GFP antibodies followed by reprobing with monoclonal anti T7 antibodies (FIGS. 1C, 1D), as indicated. Input=10% of total protein.
(§4) RBL cell lysates (500 μg) prepared in buffer A (50 mM Hepes pH 7.4, 250 mM NaCl, 1 mM MgCl₂, 1% Triton X-100, protease inhibitor mixture, 1 mM PMSF, 2 mM Na₃VO₄) were incubated overnight at 4° C. with either rabbit polyclonal anti-GFP antibodies (2 μg) or mouse monoclonal anti-T7 antibodies (1 μg). Protein A/G-Sepharose (50% v/v) was then added for 1.5 h at 4° C. Immune complexes were collected, washed three times with buffer B (50 mM Hepes pH 7.4, 150 mM NaCl, 1 mM MgCl₂, 0.2% Triton X-100, protease inhibitor mixture, 1 mM PMSF, 2 mM Na₃VO₄), and resuspended in 1× sample buffer, and boiled for 7 min. Proteins were resolved by SDS-PAGE and analyzed by immunoblotting with the desired antibodies.

[7] = molecular target: T4, GFP-RILP-L1 (mouse RILP-like 1 in pEGFP-C1) (mouse, UniProt Q9JJC6 1-406); experiment: as above
T4 construct: Expressed in transfected RBL cells; tested in cell lysate; also called pEGFP-C1-RILP-L1; not shown: EGFP of the pEGFP-C1 vector
T4 sequence (looked up): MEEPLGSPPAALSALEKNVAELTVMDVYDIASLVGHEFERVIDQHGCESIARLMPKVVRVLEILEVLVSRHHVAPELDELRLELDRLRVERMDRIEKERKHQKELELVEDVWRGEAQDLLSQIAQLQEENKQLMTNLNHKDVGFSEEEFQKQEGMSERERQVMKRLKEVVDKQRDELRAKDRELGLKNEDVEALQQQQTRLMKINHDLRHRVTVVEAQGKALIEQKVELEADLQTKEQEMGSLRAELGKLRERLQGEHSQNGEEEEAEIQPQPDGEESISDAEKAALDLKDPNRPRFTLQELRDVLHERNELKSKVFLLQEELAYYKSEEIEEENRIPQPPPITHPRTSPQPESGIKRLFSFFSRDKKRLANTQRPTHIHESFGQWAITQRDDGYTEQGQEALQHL
Method: as §3, §4

[8] = molecular target: T5, T7-RILP-L1 (pEF-T7-RILP-L1) (mouse, UniProt Q9JJC6 1-406); experiment: as above
T5 construct: The pEF-T7 plasmid was 'prepared as previously described'; also called T7-tagged RILP-L1; RILP-like 1
T5 sequence (looked up): T4 sequence (looked up)
Method: as §3, §4

With “GFP-Rab12 (pEGFP-C1-Rab12) (from UniProt P35283 49-291)” the incidence of cells with perinuclear secretory granules (NPY-mRFP), confocal microscopy of RBL cells [1] was 99% and the incidence of cells with scattered secretory granules (NPY-mRFP), confocal microscopy of RBL cells [2] was 97%.

B1: no binding [3]; no binding [4].

With B2 the “fold increase in Rab12 pulldown, Ion/TPA-triggered against resting cells” value [5] was 4 fold.

B3: no binding [6]; no binding [7].

B4: no binding [8].
